Source: PMC9482650, “Quantitative fragmentomics allow affinity mapping of interactomes” (Nature Communications, 2022)

T1: TX1BP3, O14907
T1 sequence (O14907 10-122, limits assumed, looked up): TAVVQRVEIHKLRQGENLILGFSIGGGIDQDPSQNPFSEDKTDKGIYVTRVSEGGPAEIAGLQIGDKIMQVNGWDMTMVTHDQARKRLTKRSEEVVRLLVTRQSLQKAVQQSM

T2: SYNJ2BP, P57105
T2 sequence (P57105 8-110, limits assumed, looked up): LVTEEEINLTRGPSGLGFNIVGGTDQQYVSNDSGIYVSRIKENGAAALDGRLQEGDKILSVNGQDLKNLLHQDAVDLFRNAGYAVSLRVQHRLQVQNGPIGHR

T3: SNTA1, Q13424
T3 sequence (Q13424 82-180, limits assumed, looked up): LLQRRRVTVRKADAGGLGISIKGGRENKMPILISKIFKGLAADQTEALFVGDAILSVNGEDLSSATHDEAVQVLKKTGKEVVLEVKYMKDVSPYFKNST

T4: TJP3_3, O95049
T4 sequence (O95049 375-456, limits assumed, looked up): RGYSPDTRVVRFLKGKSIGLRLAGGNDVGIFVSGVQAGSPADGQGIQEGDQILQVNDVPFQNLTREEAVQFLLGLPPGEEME

T5: NHERF3_1, Q5T2W1
T5 sequence (Q5T2W1 4-100, limits assumed, looked up): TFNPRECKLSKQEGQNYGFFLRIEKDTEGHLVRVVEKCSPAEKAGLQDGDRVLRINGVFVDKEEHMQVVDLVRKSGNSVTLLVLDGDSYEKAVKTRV

T6: SHANK1, Q9Y566
T6 sequence (Q9Y566 658-767, limits assumed, looked up): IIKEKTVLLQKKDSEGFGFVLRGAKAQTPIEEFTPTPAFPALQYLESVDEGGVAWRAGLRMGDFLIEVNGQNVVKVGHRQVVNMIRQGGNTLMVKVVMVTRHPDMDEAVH

T7: SNTG1, Q9NSN8
T7 sequence (Q9NSN8 52-150, limits assumed, looked up): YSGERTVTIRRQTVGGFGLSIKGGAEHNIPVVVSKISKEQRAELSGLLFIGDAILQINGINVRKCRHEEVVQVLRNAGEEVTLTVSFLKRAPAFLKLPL

T8: DLG3_2, Q92796
T8 sequence (Q92796 221-321, limits assumed, looked up): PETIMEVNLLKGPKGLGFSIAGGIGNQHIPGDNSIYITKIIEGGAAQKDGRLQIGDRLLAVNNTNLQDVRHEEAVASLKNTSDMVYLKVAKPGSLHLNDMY

T9: RHPN1, Q8TCX5
T9 sequence (Q8TCX5 508-602, limits assumed, looked up): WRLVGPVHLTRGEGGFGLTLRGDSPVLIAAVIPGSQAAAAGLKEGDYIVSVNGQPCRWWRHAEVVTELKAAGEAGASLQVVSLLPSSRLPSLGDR

T10: DLG3_1, Q92796
T10 sequence (Q92796 125-227, limits assumed, looked up): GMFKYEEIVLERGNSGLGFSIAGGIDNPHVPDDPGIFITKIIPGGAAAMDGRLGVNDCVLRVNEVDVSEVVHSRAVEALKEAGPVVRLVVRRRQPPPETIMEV

T11: MPDZ_10, O75970
T11 sequence (O75970 1624-1722, limits assumed, looked up): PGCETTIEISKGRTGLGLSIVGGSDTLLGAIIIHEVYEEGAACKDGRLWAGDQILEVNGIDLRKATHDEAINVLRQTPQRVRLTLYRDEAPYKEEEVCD

T12: APBA2_1, Q99767
T12 sequence (Q99767 563-664, limits assumed, looked up): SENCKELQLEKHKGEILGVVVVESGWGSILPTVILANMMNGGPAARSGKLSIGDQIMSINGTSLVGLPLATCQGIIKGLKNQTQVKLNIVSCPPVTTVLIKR


What was measured:
Assay in all cases: holdup assay
Set-up in all cases: key: below the threshold = too weak to quantify, mostly under pKd 3.1 to 4
Conditions in all cases: plain residues with an end cap or a label only (N-terminal biotin on a linker: ado-ado)
GRASP, Q7Z6J2 = target: GRASP, Q7Z6J2
ARHGEF12, Q9NZN5-2 = target: ARHGEF12, Q9NZN5-2
NHERF4_1, Q86UT5-2 = target: NHERF4_1, Q86UT5-2
DLG5_1, Q8TDM6 = target: DLG5_1, Q8TDM6
TX1BP3, O14907 = target: T1, TX1BP3, O14907
SYNJ2BP, P57105 = target: T2, SYNJ2BP, P57105
MAST2, Q6P0Q8 = target: MAST2, Q6P0Q8
GRID2IP_1, A4D2P6 = target: GRID2IP_1, A4D2P6
SNTA1, Q13424 = target: T3, SNTA1, Q13424
TJP3_3, O95049 = target: T4, TJP3_3, O95049
IL16_4, Q14005 = target: IL16_4, Q14005
NHERF3_1, Q5T2W1 = target: T5, NHERF3_1, Q5T2W1
PDZRN4_1, Q6ZMN7 = target: PDZRN4_1, Q6ZMN7
GOPC, Q9HD26 = target: GOPC, Q9HD26
SCRIB_1, Q14160 = target: SCRIB_1, Q14160
SHANK1, Q9Y566 = target: T6, SHANK1, Q9Y566
SNTG1, Q9NSN8 = target: T7, SNTG1, Q9NSN8
FRMPD3, Q5JV73 = target: FRMPD3, Q5JV73
DLG3_2, Q92796 = target: T8, DLG3_2, Q92796
LIMK2, P53671 = target: LIMK2, P53671
RHPN1, Q8TCX5 = target: T9, RHPN1, Q8TCX5
MAGI1_2, Q96QZ7 = target: MAGI1_2, Q96QZ7
DLG3_1, Q92796 = target: T10, DLG3_1, Q92796
MPDZ_10, O75970 = target: T11, MPDZ_10, O75970
CASK, O14936 = target: CASK, O14936
APBA2_1, Q99767 = target: T12, APBA2_1, Q99767

Chain of ARHGEF12, Q9NZN5-2 (Q9NZN5 other isoform, or with tags, fused parts or gaps): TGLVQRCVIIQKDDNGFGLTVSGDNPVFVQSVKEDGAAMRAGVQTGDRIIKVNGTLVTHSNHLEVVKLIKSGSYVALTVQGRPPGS
Chain of MAGI1_2, Q96QZ7 (Q96QZ7 456-580): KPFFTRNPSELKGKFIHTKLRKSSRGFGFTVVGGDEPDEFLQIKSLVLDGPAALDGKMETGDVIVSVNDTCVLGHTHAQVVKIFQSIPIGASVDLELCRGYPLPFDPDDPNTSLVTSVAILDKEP
Chain of MAST2, Q6P0Q8 (Q6P0Q8 1099-1202): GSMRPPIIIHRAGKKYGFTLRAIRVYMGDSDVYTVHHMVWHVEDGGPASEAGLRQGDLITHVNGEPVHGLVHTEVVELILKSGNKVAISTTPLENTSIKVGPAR
Chain of GRID2IP_1, A4D2P6 (A4D2P6 1-87): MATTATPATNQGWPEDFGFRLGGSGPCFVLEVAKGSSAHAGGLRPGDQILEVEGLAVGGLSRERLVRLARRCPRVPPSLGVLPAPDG
Chain of CASK, O14936 (O14936 487-570): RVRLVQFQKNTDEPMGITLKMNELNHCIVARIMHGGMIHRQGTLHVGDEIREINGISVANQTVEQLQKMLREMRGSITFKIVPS
Chain of NHERF4_1, Q86UT5-2 (Q86UT5 other isoform, or with tags, fused parts or gaps): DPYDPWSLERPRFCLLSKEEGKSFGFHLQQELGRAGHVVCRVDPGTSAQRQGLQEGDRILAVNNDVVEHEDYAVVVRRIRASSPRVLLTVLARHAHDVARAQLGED
Chain of LIMK2, P53671 (P53671 143-248): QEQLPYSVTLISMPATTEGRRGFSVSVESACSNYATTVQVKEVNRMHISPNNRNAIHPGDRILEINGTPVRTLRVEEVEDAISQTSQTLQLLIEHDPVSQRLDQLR
Chain of DLG5_1, Q8TDM6 (Q8TDM6 617-713): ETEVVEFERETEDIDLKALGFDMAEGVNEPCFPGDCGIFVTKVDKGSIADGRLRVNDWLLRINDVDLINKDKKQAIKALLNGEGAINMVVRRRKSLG
Chain of PDZRN4_1, Q6ZMN7 (Q6ZMN7 213-318): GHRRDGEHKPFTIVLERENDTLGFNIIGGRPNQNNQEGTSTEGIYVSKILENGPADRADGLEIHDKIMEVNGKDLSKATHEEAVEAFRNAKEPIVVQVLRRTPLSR
Chain of SCRIB_1, Q14160 (Q14160 718-814): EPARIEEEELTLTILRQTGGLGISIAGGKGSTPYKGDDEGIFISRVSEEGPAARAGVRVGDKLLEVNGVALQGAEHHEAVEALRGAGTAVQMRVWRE
Chain of GRASP, Q7Z6J2 (Q7Z6J2 96-193): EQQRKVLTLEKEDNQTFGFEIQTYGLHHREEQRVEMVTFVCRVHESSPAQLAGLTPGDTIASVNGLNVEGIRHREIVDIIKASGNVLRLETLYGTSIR
Chain of FRMPD3, Q5JV73 (Q5JV73 12-100): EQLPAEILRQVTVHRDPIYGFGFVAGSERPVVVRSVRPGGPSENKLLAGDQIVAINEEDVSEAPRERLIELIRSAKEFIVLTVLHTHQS
Chain of IL16_4, Q14005 (Q14005 1229-1329): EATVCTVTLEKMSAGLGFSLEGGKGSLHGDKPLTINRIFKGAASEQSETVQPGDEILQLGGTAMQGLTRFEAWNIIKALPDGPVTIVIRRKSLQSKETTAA

| Binder | pKd (GRASP, Q7Z6J2) | pKd (ARHGEF12, Q9NZN5-2) | pKd (NHERF4_1, Q86UT5-2) | pKd (DLG5_1, Q8TDM6) | pKd (TX1BP3, O14907) | pKd (SYNJ2BP, P57105) | pKd (MAST2, Q6P0Q8) | pKd (GRID2IP_1, A4D2P6) | pKd (SNTA1, Q13424) | pKd (TJP3_3, O95049) | pKd (IL16_4, Q14005) | pKd (NHERF3_1, Q5T2W1) | pKd (PDZRN4_1, Q6ZMN7) | pKd (GOPC, Q9HD26) | pKd (SCRIB_1, Q14160) | pKd (SHANK1, Q9Y566) | pKd (SNTG1, Q9NSN8) | pKd (FRMPD3, Q5JV73) | pKd (DLG3_2, Q92796) | pKd (LIMK2, P53671) | further results |
| --- | --- | --- | --- | --- | --- | --- | --- | --- | --- | --- | --- | --- | --- | --- | --- | --- | --- | --- | --- | --- | --- |
| PEEGKKQSQC [GAGE12J, A6NER3] | below the threshold | 3.84 | 3.79 | below the threshold | below the threshold | 3.54 | 4.33 | below the threshold | below the threshold | below the threshold | 3.69 | 3.68 | below the threshold | below the threshold | below the threshold | below the threshold | below the threshold | below the threshold | 4.04 | below the threshold | pKd (RHPN1, Q8TCX5): below the threshold; pKd (MAGI1_2, Q96QZ7): below the threshold; pKd (DLG3_1, Q92796): below the threshold; pKd (MPDZ_10, O75970): below the threshold; pKd (CASK, O14936): below the threshold; pKd (APBA2_1, Q99767): below the threshold |
| NPETRDETQL [KCNT1, Q5JUK3] | below the threshold | 4.36 | 3.9 | below the threshold | 3.62 | 4.43 | 5.68 | below the threshold | 4.04 | below the threshold | below the threshold | 5.27 | 4.69 | 3.76 | 4.46 | 4.14 | below the threshold | below the threshold | below the threshold | below the threshold | pKd (RHPN1, Q8TCX5): 4.43; pKd (MAGI1_2, Q96QZ7): below the threshold; pKd (DLG3_1, Q92796): below the threshold; pKd (MPDZ_10, O75970): below the threshold; pKd (CASK, O14936): below the threshold; pKd (APBA2_1, Q99767): below the threshold |
| SSGSTSSSRI [ADGRG1, Q9Y653] | below the threshold | 4.04 | below the threshold | below the threshold | below the threshold | below the threshold | 4.68 | below the threshold | below the threshold | below the threshold | 3.63 | 4.48 | below the threshold | 4 | below the threshold | 4.31 | below the threshold | below the threshold | 3.75 | below the threshold | pKd (RHPN1, Q8TCX5): 3.93; pKd (MAGI1_2, Q96QZ7): below the threshold; pKd (DLG3_1, Q92796): 3.54; pKd (MPDZ_10, O75970): below the threshold; pKd (CASK, O14936): below the threshold; pKd (APBA2_1, Q99767): below the threshold |
| EWTDERQSKV [GAB3, Q8WWW8] | 3.84 | 3.68 | below the threshold | 3.66 | 3.72 | 3.72 | 4.8 | below the threshold | 4.43 | below the threshold | below the threshold | 4.36 | 3.86 | 3.82 | below the threshold | 3.88 | 3.97 | below the threshold | below the threshold | below the threshold | pKd (RHPN1, Q8TCX5): 4.2; pKd (MAGI1_2, Q96QZ7): below the threshold; pKd (DLG3_1, Q92796): 3.59; pKd (MPDZ_10, O75970): 3.75; pKd (CASK, O14936): below the threshold; pKd (APBA2_1, Q99767): below the threshold |
| ASGLDKRDYV [CLDN9, O95484] | below the threshold | below the threshold | below the threshold | below the threshold | 3.92 | below the threshold | 3.5 | below the threshold | below the threshold | 3.65 | below the threshold | 4.46 | below the threshold | below the threshold | below the threshold | below the threshold | below the threshold | below the threshold | below the threshold | below the threshold | pKd (RHPN1, Q8TCX5): below the threshold; pKd (MAGI1_2, Q96QZ7): below the threshold; pKd (DLG3_1, Q92796): below the threshold; pKd (MPDZ_10, O75970): below the threshold; pKd (CASK, O14936): below the threshold; pKd (APBA2_1, Q99767): below the threshold |
| PDSNPEESSV [SEMA4C, Q9C0C4] | 3.91 | 3.71 | 3.7 | below the threshold | 4.25 | 5.09 | 5.36 | below the threshold | 4.25 | below the threshold | below the threshold | 3.56 | 4.43 | 3.67 | 4.15 | below the threshold | 4.65 | below the threshold | 3.73 | below the threshold | pKd (RHPN1, Q8TCX5): 4.7; pKd (MAGI1_2, Q96QZ7): below the threshold; pKd (DLG3_1, Q92796): below the threshold; pKd (MPDZ_10, O75970): below the threshold; pKd (CASK, O14936): below the threshold; pKd (APBA2_1, Q99767): below the threshold |
